Series [1] concerns the target T1, EZH2 (Homo sapiens, UniProt Q15910).
T1 construct: endogenous in cells; host or cells: VCaP cells (some retrovirally infected to over-express NXTAR lncRNA)
As to the kind of experiment: Pull-down from VCaP cell lysates with biotinylated oligos, immunoblotting for EZH2. The class given is binding. The conditions noted are these: VCaP cells with retroviral expression of NXTAR. As to the method: The biotinylated oligonucleotides were incubated with lysates (2 h), and the lysates were incubated with streptavidin magnetic beads overnight. Beads attached to RNAs were divided equally and processed for either RNA isolation or western blotting. For RNA isolation, beads were washed three times and then separated using proteinase K treatment. RNA was then isolated and purified, and DNA was digested in the process. The real-time quantitative RT-PCR was performed on isolated RNA to check the efficiency of pull-down of NXTAR RNA. The remaining beads were heated at 80° C. for 5 min in loading buffer, followed by western blotting. The blots were probed with EZH2 (CST, 5246S; RRID:AB_10694683) antibody and Actin (SCBT, sc-47778; RRID:AB_2714189) was used as the loading control.
Biotin-labeled NXTAR-N5 (complementary to the AR promoter) and globin oligos were synthesized (IDT) (see e.g., TABLE 1). ChIRP was performed using lysate from formaldehyde-fixed VCaP cells and oligos that were immobilized to streptavidin beads, as described earlier (see e.g., Chu and Chang (2016) Methods Mol Bio). The amount of the chromatin DNA was determined by real-time PCR. For detection of NXTAR-N5/EZH2 binding, biotin-labeled NXTAR-N5 oligo and control globin oligo were incubated with VCaP cell lysates and were subjected to chromatin pull-down, followed by immunoblotting with EZH2 antibodies.
On the technique in general: A western blot detects proteins with antibodies after separation by electrophoresis.

The test system of series [2] is AR. As to the kind of experiment: Immunoblotting of AR protein in prostate cancer cells. The format is cell-based, human. As to the method:
Cells were harvested, lysed by sonication in receptor lysis buffer (see e.g., Mahajan et al. (2010) PLoS One) and 20-50 μg of protein lysates were fractionated by SDS-PAGE, and transferred onto a PVDF membrane (Immobilon, Cat #IPVH00010). After blocking in 5% nonfat dry milk (RPI, Cat #M17200) (or 3% BSA, Goldbio, Cat #A-420-500), membranes were incubated with the following monoclonal antibodies: AR (SCBT, Cat #sc-7305; RRID:AB 626671), pY276-AR (29), ACK1 (SCBT, sc-28336; RRID:AB 626629), pACK1 (Upstate, 09-142; RRID:AB 612088), EZH2, and Actin. The signals were visualized by using the enhanced chemiluminescence (ECL; Pierce, 32106) system.

Series [3] relates to VCaP and 22Rv1 cells. Briefly: Proliferation assay, viable cells by trypan blue exclusion. The class given is cell-based, human. The method, then: (§1) NXTAR-N5 oligonucleotide was synthesized by IDT, and the oligonucleotide sequence is provided in TABLE 1 and FIG. 7C (* represents phosphorothioate bond modifications to avoid degradation by exonucleases). Equal numbers of VCaP and 22Rv1 cells were transfected with NXTAR-N5 or globin-derived oligonucleotide using X-tremeGENE360 (Sigma-Aldrich, Cat #08724121001), and the number of live cells was counted 96 h post-transfection using trypan blue exclusion method (Sigma, Cat #T8154). RNA was prepared from these cells, and qRT-PCR [SYBR PremixEx Taq II (Tli RNase H Plus)ROX, Clontech Takara, Cat #RR82LR] for AR and AR-V7 was performed as described earlier (see e.g., Mahajan et al. (2017) Cancer Cell).
The 22Rv1, VCaP, or LNCaP cells were retrovirally infected with control or NXTAR vectors and selected in puromycin medium containing 5% charcoal-stripped serum. Equal numbers of selected cells were seeded in 6-well plates followed by treatment with either (R)-9b, enzalutamide (Selleck Chemicals, Cat #S1250), or abiraterone (Selleck Chemicals, Cat #52246), and the number of viable cells was counted by trypan blue exclusion assay.

Series [4] relates to AR promoter. Briefly: ChIP-qPCR (EZH2, H3K27me3) at AR promoter. The class given is cell-based, human. The method, then:
Chromatin immunoprecipitation (ChIP), quantitative RT-PCR, and ChIP-qPCR were performed as described earlier (see e.g., Mahajan et al. (2017) Cancer Cell; Mahajan et al. (2012) J Biol Chem; and Mahajan et al. (2012) Nat Struct Mol Bio). Briefly, cells were either transfected, infected or treated with various inhibitors (R)-9b; CPTH2 (Sigma, Cat #C9873)], fixed in formaldehyde, lysed and ChIP was performed with antibodies recognizing AR (SCBT, sc-7305; RRID:AB_626671), GCN5 (SCBT, SC-365321; RRID:AB_10846182), H3K14ac (CST, 7627S; RRID:AB_10839410), H3K27me3 (CST, 9733S; RRID:AB 2616029), NCOR1 (Bethyl Laboratories, Cat #A301-145A; RRID:AB_873085), EZH2 (CST, 5246S; RRID:AB_10694683), or IgG (Abcam, ab2410; RRID:AB_303052), immobilized on Protein A magnetic beads (Biorad, Cat #161-4013). The complexes were washed with ChIP buffers, eluted with elution buffer (Active Motif, Cat #53008), and subjected to reverse crosslinking, followed by RNase and proteinase K treatments. A part of soluble chromatin was processed separately at the same time and designated as input DNA. Treated ChIP DNA and input DNAs were purified using PCR-DNA purification columns (Qiagen, Cat #28106). The amount of immunoprecipitated DNA was determined by real-time PCR.

For series [5], the system named is AR. Briefly: qRT-PCR of AR and AR target gene expression in prostate cancer cells. The format is cell-based, human. The method, then: as §1
(§2) Cells were transfected, infected or treated [(R)-9b; EPZ6438, TargetMol, Cat #T1788] accordingly. RNA was used for cDNA preparation using High-Capacity cDNA Reverse Transcription Kit (Thermo Scientific Cat #4368814). Resulting cDNA was then analyzed by qPCR using an Applied Biosystems 7900 Real-Time PCR System (Thermo Scientific) and SYBR Green PCR Master Mix [SYBR PremixEx Taq II (Tli RNase H Plus) ROX, Clontech Takara, Cat #RR82LR] according to the manufacturers' instructions. Dissociation curves were generated for each plate to verify the integrity of the primers. The relative expression of RNAs was calculated using the comparative Ct or standard curve method. 18S rRNA or actin were used as internal controls.

Series [6] concerns AR-V7. Briefly: qRT-PCR of AR-V7 expression in prostate cancer cells. The class given is cell-based, human. The conditions noted are these: 22Rv1 cells, reintroduction of NXTAR. The method, then: as §1
as §2, with “18S rRNA or actin were used as internal controls.” left out

Setting [7] is: 22Rv1 and VCaP cells infected with retroviral NXTAR construct.

T1 sequence (Q15910 whole entry): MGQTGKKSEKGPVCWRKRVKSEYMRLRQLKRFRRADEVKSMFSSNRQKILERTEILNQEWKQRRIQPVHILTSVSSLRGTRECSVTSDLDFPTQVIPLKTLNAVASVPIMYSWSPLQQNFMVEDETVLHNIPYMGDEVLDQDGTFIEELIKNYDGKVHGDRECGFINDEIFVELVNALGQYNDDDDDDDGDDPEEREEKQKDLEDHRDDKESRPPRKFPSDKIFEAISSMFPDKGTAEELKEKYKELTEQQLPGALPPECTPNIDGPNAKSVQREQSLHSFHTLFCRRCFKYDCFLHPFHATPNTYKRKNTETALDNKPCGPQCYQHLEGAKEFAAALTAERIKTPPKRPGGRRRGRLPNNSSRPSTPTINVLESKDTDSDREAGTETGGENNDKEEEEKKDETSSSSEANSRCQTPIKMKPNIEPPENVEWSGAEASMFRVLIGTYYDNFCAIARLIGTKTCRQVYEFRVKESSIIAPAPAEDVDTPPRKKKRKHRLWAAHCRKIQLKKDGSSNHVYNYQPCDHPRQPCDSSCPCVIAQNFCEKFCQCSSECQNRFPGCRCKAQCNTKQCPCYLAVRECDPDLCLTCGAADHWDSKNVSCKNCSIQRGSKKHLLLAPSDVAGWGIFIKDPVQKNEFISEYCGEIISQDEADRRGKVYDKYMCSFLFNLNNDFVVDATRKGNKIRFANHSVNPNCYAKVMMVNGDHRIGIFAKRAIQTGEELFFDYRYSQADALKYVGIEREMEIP
T1 sequence (O75530 whole entry partner): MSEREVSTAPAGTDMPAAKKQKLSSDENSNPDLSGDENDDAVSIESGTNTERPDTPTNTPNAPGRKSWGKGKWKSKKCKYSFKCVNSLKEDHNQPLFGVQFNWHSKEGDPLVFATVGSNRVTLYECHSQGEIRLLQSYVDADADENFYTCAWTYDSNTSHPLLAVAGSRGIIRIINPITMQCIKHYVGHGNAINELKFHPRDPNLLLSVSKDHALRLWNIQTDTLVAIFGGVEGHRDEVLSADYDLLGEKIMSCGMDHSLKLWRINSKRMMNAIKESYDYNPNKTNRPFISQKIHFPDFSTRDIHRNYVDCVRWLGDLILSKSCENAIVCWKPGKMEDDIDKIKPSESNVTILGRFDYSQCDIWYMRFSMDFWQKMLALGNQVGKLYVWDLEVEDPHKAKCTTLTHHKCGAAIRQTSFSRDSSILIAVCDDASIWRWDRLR
T1 sequence (Q15022 whole entry partner): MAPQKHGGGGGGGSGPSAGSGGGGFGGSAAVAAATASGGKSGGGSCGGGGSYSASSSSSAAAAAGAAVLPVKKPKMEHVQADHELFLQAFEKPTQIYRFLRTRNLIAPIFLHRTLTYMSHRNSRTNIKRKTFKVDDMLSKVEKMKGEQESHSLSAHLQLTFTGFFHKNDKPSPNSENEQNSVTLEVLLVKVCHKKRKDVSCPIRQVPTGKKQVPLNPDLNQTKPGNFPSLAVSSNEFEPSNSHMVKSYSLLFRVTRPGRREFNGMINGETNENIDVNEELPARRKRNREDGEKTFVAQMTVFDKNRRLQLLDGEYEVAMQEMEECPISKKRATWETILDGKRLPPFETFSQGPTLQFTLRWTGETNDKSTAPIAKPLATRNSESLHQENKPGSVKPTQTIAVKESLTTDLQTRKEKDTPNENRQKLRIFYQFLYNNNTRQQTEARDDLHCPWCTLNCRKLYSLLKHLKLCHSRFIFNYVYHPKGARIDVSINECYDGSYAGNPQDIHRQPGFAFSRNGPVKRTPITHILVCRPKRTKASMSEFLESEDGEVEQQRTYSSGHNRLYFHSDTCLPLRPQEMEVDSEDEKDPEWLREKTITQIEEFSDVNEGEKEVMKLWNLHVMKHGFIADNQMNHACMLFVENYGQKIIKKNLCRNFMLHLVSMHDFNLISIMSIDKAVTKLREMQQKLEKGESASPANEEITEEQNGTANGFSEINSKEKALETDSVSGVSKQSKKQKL
T1 sequence (Q09028 whole entry partner): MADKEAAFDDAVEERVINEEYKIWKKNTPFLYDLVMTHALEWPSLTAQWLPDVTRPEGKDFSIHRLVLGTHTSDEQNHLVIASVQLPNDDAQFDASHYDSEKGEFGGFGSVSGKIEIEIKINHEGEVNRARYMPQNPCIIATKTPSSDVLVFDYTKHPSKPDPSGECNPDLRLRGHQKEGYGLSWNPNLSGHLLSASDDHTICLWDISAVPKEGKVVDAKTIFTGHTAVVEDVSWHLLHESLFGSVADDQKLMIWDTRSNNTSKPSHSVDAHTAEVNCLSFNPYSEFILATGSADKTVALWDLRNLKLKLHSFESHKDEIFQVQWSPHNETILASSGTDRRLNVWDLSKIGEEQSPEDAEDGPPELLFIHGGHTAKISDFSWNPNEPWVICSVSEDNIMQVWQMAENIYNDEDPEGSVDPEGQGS

B1: NXTAR: long non-coding RNA, 1476-nt transcript (SEQ ID NO: 58), expressed from retroviral or plasmid constructs (nucleic acid, listed as Homo sapiens)
chain: GGAAAAGGAAGGCTGCACAGAAGAACTGGCATTTGTGTTCTGCCTACAAAGCTGAAAAGGATTTCACCCAAATCAGGGAAGATCAGCCTTATGAGGTGGATATTATTGCCACAATAATTTTCCAGATGAAAAATGGAGGCCCAGAGATGTTAAGGAATTTGCCCAAGATCATGAAAAGACACTCTCCCCTATTGAGATGTCATGCAAGGATCAGTGCTGTGTGAAAATCCACATGAAGCAGGAAATGCAGGTGGTGGTGTCCAATCTGATTTCAAGATCTGAGAAGCTGTGCACTGCCTGAAAGGTATCTATTTAAGGTGTCACCAGACTCCTGCTCCACTCCTGCCCAAGGCCCAGCCCATCCAAGAGCAAAAGGCAAGTGGTGTTACAACCTTGGGATTTCCTGTATCTGCCCTCTTGCGGATAGCAGGACAGAGTCACAGCTGCATTAAATTCGCTTAAGACTTATTGAGACACTTCAACACTTCAACAACGACCTGTGAGATTAAGATTATTATTTTAAATTTACAGAAGGGGAAACTAAGAATTATAGACATGAAGTGACTCACCTATGACCACCTGGTGATAGAACCAGGACTAGAGCTCAGGTATGAAGATTTCTGGGGGAGTCCCTGAAAAAAAGGCTCCATATGGAATTACAATGTGGAAAAGGCCAAGGCCTCACCAACCCTTTTCTCTTCAACACCTGGATCCCTAAGTCCTTATTCGTAACCTCCTCTTTGGACAAGGTTTTGGTAGACAAAGCCAGAGCCTCTTGCACTGAGAAAGACAAATTCTCCTCTTGCAGTGAACCACAGGTAAATGCTCCAATAGAGAGTCCAAGCCAAACCTCCGGGTGTTATTCATGACCCAGGCAAGTCTGCTTTCTCATTCCCCCTATCTCTAGACCGTTTTCCATTTGGGCTTCCTTTTCTTCTTTTATCCTCAAAGAAACATGTTTCCTTCTAGTAGGTTTGGCTGCCACCACTAGGGTCCTGGCTACAACTGGCCCTCAGGTAACTCTCTCACCTCTGAGTTGGATAGTATCCTCTCTCGTCCCCATACACAAGTGTTTCTCTTCCCAGACACCTTCCTTACACAATTTCCCATTTCTTTCTCATCTCACCCTTGCTTTAATCAACATAGTTCTTTCCCCTGAGATTACTCTTCAGCCTTTCTTGTTGAAGCACTGCCCAGTGGTTCTCTTGGGATTTCCATTTCTCTCCCCTCAGCTCTCTTGGTACCAAATTCTGTAAGCTTCTCTGGTTTTTGGTTTCTCTTCCTTCTTTTCCTTCCAGGCAACATTTACTCAATCTAGGCTTGGATGATCAGGTACTTCTGCCAGCCTGCCCACTAGGGAACTCTGGGCTAGGAATATGTCTCAATGGCACCATTATATTTGGAAGGACGCTTCTGTATTTACACTGAACACACTAAAATACTAAACTTGAAGCCAAAATCCCCTCTCTGGCTCCA
As to B1, in series [1], the “EZH2 binding in RNA pull-down” value is given as “EZH2 could bind to NXTAR RNA”. Besides, the AR protein entry in series [2] (22Rv1 cells, NXTAR construct 0.25-2 μg, 48 hrs) was “dose-dependent downregulation of AR”. The AR protein entry in series [2] (LNCaP and 22Rv1 cells, NXTAR plasmid 24, 48 and 72 hrs) is reported as “decreased upon NXTAR expression in a time-dependent manner”. Further, the “AR expression (protein)” value in series [2] (VCaP and 22Rv1 cells, NXTAR expression) was “loss of AR expression”. Also, the sensitivity to abiraterone result in series [3] (22Rv1 cells expressing NXTAR, 5 days) is given as “further sensitized them”. The “proliferation upon enzalutamide treatment” value in series [3] (VCaP and 22Rv1 cells expressing NXTAR) is “significantly compromised proliferation”. Further, the proliferation result in series [3] (VCaP and 22Rv1 cells, NXTAR expression vs pBABE vector) is reported as “severe loss of proliferation”. In addition, in series [4] (LNCaP cells overexpressing NXTAR), the “EZH2 binding at the AR promoter” value is reported as “significant binding”. For the same molecule, the “deposition of H3K27me3 marks in the AR promoter” value in series [4] (LNCaP, 22Rv1 and VCaP cells, NXTAR restoration) is recorded as “significant increase in deposition of H3K27me3 marks”. In addition, in series [5] (setting [7]), the “AR mRNA level” value is “significant decrease in AR mRNA level”, the KLK3 expression result is “significant loss of expression” and the TMPRSS2 expression result was “significant loss of expression”. The “AR and KLK3/PSA levels post-DHT-treatment” value in series [5] (LNCaP and 22Rv1 cells, DHT 10 nM overnight, NXTAR restoration) is listed as “significantly compromised upon NXTAR restoration”. In series [5] (VCaP cells, NXTAR overexpression (rescue experiment)), the AR levels entry is on record as “significant loss of AR levels”. For the same molecule, the AR-V7 expression result in series [6] was “significantly compromised”.

Values taken from patent US12194057B2, “NXTAR-derived oligonucleotides and uses thereof” (Washington University, priority 2020, dated 2025).
